The values below come from publication PMC8648840, “Functional consequences of TCF4 missense substitutions associated with Pitt-Hopkins syndrome, mild intellectual disability, and schizophrenia” (The Journal of Biological Chemistry, 2021).

Where a chain is given by its changes, count along the chain named. Numbers in names are those of the source.

This test addresses T1, achaete-scute homolog 1 (ASCL1), expressed in cells (UniProt P50553 1-236).
T1 sequence (looked up): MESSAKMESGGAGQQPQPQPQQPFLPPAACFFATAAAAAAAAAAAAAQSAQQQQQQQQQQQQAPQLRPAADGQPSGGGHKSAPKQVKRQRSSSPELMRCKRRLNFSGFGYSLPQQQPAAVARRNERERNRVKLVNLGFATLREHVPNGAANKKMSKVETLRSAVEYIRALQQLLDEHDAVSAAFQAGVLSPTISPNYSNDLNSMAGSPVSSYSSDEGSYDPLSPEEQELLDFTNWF
The experiment in a line: cell-based or functional assay.

B1: TCF4-B¯ A587P (natural protein, human, UniProt P15884-3 1-671, looked up)
chain: MHHQQRMAALGTDKELSDLLDFSAMFSPPVSSGKNGPTSLASGHFTGSNVEDRSSSGSWGNGGHPSPSRNYGDGTPYDHMTSRDLGSHDNLSPPFVNSRIQSKTERGSYSSYGRESNLQGCHQQSLLGGDMDMGNPGTLSPTKPGSQYYQYSSNNPRRRPLHSSAMEVQTKKVRKVPPGLPSSVYAPSASTADYNRDSPGYPSSKPATSTFPSSFFMQDGHHSSDPWSSSSGMNQPGYAGMLGNSSHIPQSSSYCSLHPHERLSYPSHSSADINSSLPPMSTFHRSGTNHYSTSSCTPPANGTDSIMANRGSGAAGSSQTGDALGKALASIYSPDHTNNSFSSNPSTPVGSPPSLSAGTAVWSRNGGQASSSPNYEGPLHSLQSRIEDRLERLDDAIHVLRNHAVGPSTAMPGGHGDMHGIIGPSHNGAMGGLGSGYGTGLLSANRHSLMVGTHREDGVALRGSHSLLPNQVPVPQLPVQSATSPDLNPPQDPYRGMPPGLQGQSVSSGSSEIKSDDEGDENLQDTKSSEDKKLDDDKKDIKSITSNNDDEDLTPEQKAEREKERRMANNARERLRVRDINEPFKELGRMVQLHLKSDKPQTKLLILHQAVAVILSLEQQVRERNLNPKAACLKRREEEKVSSEPPPLSLAGPHPGMGDASNHMGQM
For the molecule B1, the “luciferase reporter (12 μE5 E-boxes, minimal promoter) in HEK293 cells, coexpressed with ASCL1; reduction against WT TCF4-B¯” value worked out at 4.8 fold.

B2: TCF4-B¯ N585D (natural protein, human, UniProt P15884-3 1-671, looked up)
chain: B1 chain with N581D, P583A
As for B2, the “luciferase reporter (12 μE5 E-boxes, minimal promoter) in HEK293 cells, coexpressed with ASCL1; increase against WT TCF4-B¯” value was determined as 1.6 fold and the “luciferase reporter in rat primary neurons, basal conditions, coexpressed with ASCL1; increase against WT TCF4-B¯” value is 2.4 fold.

B3: TCF4-B¯ R569W (natural protein, human, UniProt P15884-3 1-671, looked up)
chain: B1 chain with R565W, P583A
As to B3, the “luciferase reporter (12 μE5 E-boxes, minimal promoter) in HEK293 cells, coexpressed with ASCL1; increase against WT TCF4-B¯” value turned out to be 2.2 fold and the “luciferase reporter in rat primary neurons, basal conditions, coexpressed with ASCL1; increase against WT TCF4-B¯” value amounted to 2.8 fold.

B4: TCF4-B¯ S253R (natural protein, human, UniProt P15884-3 1-671, looked up)
chain: B1 chain with S253R, P583A
Regarding B4, the “luciferase reporter (12 μE5 E-boxes, minimal promoter) in HEK293 cells, coexpressed with ASCL1; reduction against WT TCF4-B¯” value came to 1.4 fold.

B5: Transcription factor 4 isoform TCF4-A¯, wild type (natural protein, human, UniProt P15884-6 1-507, looked up)
chain: MYCAYTIPGMGGNSLMYYYNGKAVYAPSASTADYNRDSPGYPSSKPATSTFPSSFFMQDGHHSSDPWSSSSGMNQPGYAGMLGNSSHIPQSSSYCSLHPHERLSYPSHSSADINSSLPPMSTFHRSGTNHYSTSSCTPPANGTDSIMANRGSGAAGSSQTGDALGKALASIYSPDHTNNSFSSNPSTPVGSPPSLSAGTAVWSRNGGQASSSPNYEGPLHSLQSRIEDRLERLDDAIHVLRNHAVGPSTAMPGGHGDMHGIIGPSHNGAMGGLGSGYGTGLLSANRHSLMVGTHREDGVALRGSHSLLPNQVPVPQLPVQSATSPDLNPPQDPYRGMPPGLQGQSVSSGSSEIKSDDEGDENLQDTKSSEDKKLDDDKKDIKSITSNNDDEDLTPEQKAEREKERRMANNARERLRVRDINEAFKELGRMVQLHLKSDKPQTKLLILHQAVAVILSLEQQVRERNLNPKAACLKRREEEKVSSEPPPLSLAGPHPGMGDASNHMGQM
With B5, the “luciferase reporter (12 μE5 E-boxes, TK promoter) in depolarized rat primary neurons; increase when ASCL1 was coexpressed” value amounted to 2.5 fold.
